US12559545 (VANDERBILT UNIVERSITY, dated 2026)

T1: HeV-G
T1 chain: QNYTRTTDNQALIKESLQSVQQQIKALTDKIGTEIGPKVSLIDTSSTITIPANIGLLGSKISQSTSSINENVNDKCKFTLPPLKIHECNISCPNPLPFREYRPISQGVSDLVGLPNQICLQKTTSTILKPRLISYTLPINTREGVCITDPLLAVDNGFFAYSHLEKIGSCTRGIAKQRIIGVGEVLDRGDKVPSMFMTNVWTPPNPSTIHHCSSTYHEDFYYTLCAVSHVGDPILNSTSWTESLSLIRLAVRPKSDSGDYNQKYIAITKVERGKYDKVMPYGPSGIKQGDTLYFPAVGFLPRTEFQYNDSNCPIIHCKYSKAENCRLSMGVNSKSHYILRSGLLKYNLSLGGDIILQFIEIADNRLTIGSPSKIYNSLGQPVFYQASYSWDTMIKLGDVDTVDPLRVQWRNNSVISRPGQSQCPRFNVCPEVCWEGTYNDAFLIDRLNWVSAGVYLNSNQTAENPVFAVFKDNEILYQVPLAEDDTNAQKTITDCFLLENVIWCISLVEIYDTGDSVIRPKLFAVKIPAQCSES

T2: NiVM-G
T2 chain: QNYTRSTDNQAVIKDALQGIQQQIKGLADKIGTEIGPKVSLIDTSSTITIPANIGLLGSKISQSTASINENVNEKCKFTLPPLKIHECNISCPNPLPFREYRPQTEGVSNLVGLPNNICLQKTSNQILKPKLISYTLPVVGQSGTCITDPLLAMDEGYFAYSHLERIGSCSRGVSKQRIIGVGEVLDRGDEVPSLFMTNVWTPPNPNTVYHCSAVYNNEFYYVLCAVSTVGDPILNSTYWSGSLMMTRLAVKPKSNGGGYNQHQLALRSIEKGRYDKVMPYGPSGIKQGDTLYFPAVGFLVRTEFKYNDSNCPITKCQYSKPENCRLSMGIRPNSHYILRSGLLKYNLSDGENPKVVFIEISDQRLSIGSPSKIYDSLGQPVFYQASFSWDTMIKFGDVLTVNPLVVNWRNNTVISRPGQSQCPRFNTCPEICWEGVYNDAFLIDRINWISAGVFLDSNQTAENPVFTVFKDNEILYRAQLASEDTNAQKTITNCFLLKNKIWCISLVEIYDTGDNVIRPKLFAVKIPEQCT


How the values were obtained:
HeV-G = target: T1, HeV-G
NiVM-G = target: T2, NiVM-G

Binder | EC50 (HeV-G) [nM] | EC50 (NiVM-G) [nM]
HENV-141 (antibody, V domains shown) VH: QVQLVQSGAEVKKPGSSVKVSCKASGGTFSSYTISWVRQAPGQGLEWMGRIIPISGITNYAQKFQGRVTITADKSTSTAYMELSSLRSEDTAVYYCAKDCYYGSGTYYGCRADYQWHHTMDVWGQGTTVTVSS VL: DIQMTQSPSSLSASVGDRVTITCRASQGIRNDLGWFQQKPGKAPKRLIYAASSLQSGVPSRFSGSGSGTEFTLTISSLQPEDFATYFCLQHNTYPLTFGQGTKVEIK | 0.326 | 0.266
HENV-122 (antibody, V domains shown) VH: EVQLLESGGGLVQPGGSLRLSCAASGFTFSTNAMSWVRQAPGKGLEWVSTVSGSGAHPNYGDSVKGRFTISRVNSKNTLFLQMSSLRAEDTAIYYCARVSTVTVGGHIPRGYYFDYWGQGTLVTVSS VL: EILLTQSPGTLSLSPGERATLSCRASQSASSSYLAWYQQKPGQAPRLLIYGASTRATGIPDRFSGSGSGTEFTLTISRLESEDFAVYYCHHYGSSRTFGQGTKVEVK | 0.387 | 0.407
HENV-99 (antibody, V domains shown) VH: QVLLVQSGAEVRKPGASVKVSCRASGYTFTDYYMHWVRQAPGQGLEWMGWINPNSGATKYAQKFQGRVTLTRDTSINTAYMELSGLRSVDTAVFYCASVPPSGFFYWGSDYWGQGTLVTVSS VL: DVVLTQSPLSLPVTLGQPASISCRSSQSLVYSDGTTYLNWFQQRPGQSPRRLIYKVSYRDSGVPDRFSGSGSGTDFTLEISRVEAEDVGIYYCMHGTHWETWTFGQGTKVEIK | 0.42 | 0.294
HENV-98 (antibody, V domains shown) VH: AVQLVESGGGLVQPGGSLRLSCEASGFTFSGYWMSWVRQAPGKGLEWVANIKGDGSEKYYVDSVKGRFTIFRDNAKTSLYLQVNSLRAEDTAVYYCARERHFLAARPGYYIYSGLDVWGPGTTVTVSS VL: DIQMTQSPSSLSASVGDRVTITCRASQSIDNYLNWYQQKPGKVPKLLIYAASNLQSGVPSKFSGGGSGTDFTLTISSLQPDDFATYYCQQSFGTPRTFGQGTRVEIK | 0.434 | 0.396
HENV-100 (antibody, V domains shown) VH: QVQLVQSGAEVKKPGASVKVSCKASGYTFTSYYINWVRQAPGQGLEWVGTINPSGGSTTYAQKFQGRVTVTRDTSTSTVYMDLSGLRSGDTAVYYCARDRKGLAATPVYSDYYYGMDVWGQGTTVTVSS VL: EIVLTQSPATLSLSPGERATLSCRASQSVSSFLAWYQQKPGQAPRLLISDASKRATGIPARFSGSGSGTDFSLTISSLEAEDFAVYYCQQSTNWRITFGQGTRLELK | 0.469 | 0.316
HENV-170 (antibody, V domains shown) VH: EVQLLESGGGLVQPGGSLRLSCAASGFTFSSYTMSWVRQAPGKGLEWVSGISGSGGNTYYAGSVKGRFTISRDNSKNTLYLQMNSLRAEDTAVYYCAKDGYTGQQLMRRGPWWFDPWGQGTLVTVSS VL: SYVLTQPPSVSVAPGQTARITCGGNNIGSKSVHWYQQKPGQAPVLVVYDDSDRPSGIPERFSGSKSGNTATLTISRVEAGDEADYYCQVWDSSSDHVVFGGGTKLTVL | 0.518 | 0.378
HENV-150 (antibody, V domains shown) VH: EVQLLESGGGLVQPGGSLRLSCAASGFTFSSSAMSWVRQTPGKGLEWVSTISGSGANTYYAASVKGRFPISRDNSKNTLFLQMNSLRAEDTAVYYCAKVSTVTFGGHVPRGSYFDYWGQGTQVTVSS VL: SYVLTQPPSVSVAPGQTARIPCGGNNIGSKSVHWYQQKPGQAPVLVVYDENDRPSGIPERFSASKSGNTATLTISRVEAGDEADYYCQVWDSRSDHYVFGTGTKVTVL | 0.328 | 0.27
HENV-103 (antibody, V domains shown) VH: QVQLQGSGPGLVKPSQTLSLTCSVSGGSVSRSGYYWGWIRQHPGKGLECIGYIYYSGITYYNPSLSGRLTISVDTSKNQFSLELSSVTAADTAVYYCARVWLGGGVFDFWGQGSLVTVSS VL: EIVMTQSPATLSVSPGEGATLSCRASQSVSSNLAWYQQKPGQAPRLLIYDASTRATGIPARFSGSGSGTEFTLTISSLQSEDFAVYYCQQYNDWRTFGRGTKVEMR | 0.806 | 0.611
HENV-117 (antibody, V domains shown) VH: QVQLQQWGAGLLKPSETLSLTCDLSGGSFTNYYWTWIRHLPGKGLEWLGEINHSGRTNYSPSLKSRVTISVDTSKNQFSLRLSSVTAADTAVYYCARDIRKLAPKPHSYDLYYGMDVWGQGTTVTVSS VL: EIVLTQSPGTLSLSPGERATLSCRASQSVGSNYLTWYQQKPGQPPRLLIYGASNRAAGIPDRFSGSGSGTDFTLTISRLEPEDFAVYYCQQYETSSRTFGQGTKVDIR | 1.06 | 1.23
HENV-58 (antibody, V domains shown) VH: QVQLVQSGAEVKKPGSSVKVSCKASGGTFSNYVISWVRQAPGQGFEWMGRIIPMIGISNYAQKFQDRVTITADKDESTTTAYMELRGLRSEDTAMYYCASSTVTEVGAWGQGTLVTVSS VL: AIQLTQSPSSLSASIGDRVTITCRASQGISSALAWFQQKPGKPPILLIYDASSLESGVPARFSGSGSGTDFTLTISSLQPEDFATYYCQQFYNHPLTFGPGTKVDIK | 1.14 | 0.739
HENV-184 (antibody, V domains shown) VH: QVQLVQSGTEVKNPGSSVKVSCKASGGTFSGFGISWVRQAPGQGLEWMGGVLPIFGSPNYAQKFQGRVTITADESTGTAYMDLSSLRSDDTAMYYCARDQSGGFFDYWGQGTLVIVSS VL: EIVLTQSPATLSLSPGERATLSCRASQSVSSNLAWYQQKPGQAPRLLIYDASDRATGVPARFSGSGSGTDFTLTISSLEPEDFALYYCQQRYNWRVTFGQGTRLEIK | 1.19 | 0.622
HENV-142 (antibody, V domains shown) VH: QVRLQESGPRLVKPSQTLSLTCTVSGGSISSRDYYWSWIRQHPGKGLEWIGYIYYSGTTYYNPSLESRVTLSLDTSKNQFSLDLTSVTAADTAVYHCARVWLGGGVFDFWGQGTLVTVSA VL: EIVMTQSPDTLSVSPGERATLSCRASHSVTTNLAWYQQRPGQAPRLLIFDASTRATGIPARFSGSGSGTEFTLTIGSLQSEDFAVYYCQQYNDGRTFGQGTKVEIK | 1.86 | 1.03
HENV-222 (antibody, V domains shown) VH: QVQLQESGPGLVKPSETLSLTCTVSGGSIDSYYWSWIRQPAGKGLEWIGRIYPSGTTNYNPSLKSRVTMSVDTSKNQFSLKVTSVTAADTAVYYCARMQTGFGSSLFFVPYFDNWGQGTLVTVSS VL: EIVLTQSPATLSLSPGERATLSCRASQSVSSYLAWYQQKPGQAPRLLIYDASNRATGIPARFSGSGSGTDFTLTISSLEPEDFAVYYCQQRGNWPLTFGGGTKVEIK | 5.66 | 0.586
HENV-242 (antibody, V domains shown) VH: QVQLVQSGAEVKKPGSSVTVSCKTSGGTFSGYAVSWVRQAPGQGLEWMGRIVPQFNIPNYAQKFQDRVTITADESTGTSYMELSSLRSDDTAVFYCARENIQTIFGVVAMMGGGGYFDSWGQGTLVTVSS VL: DIQMTQSPSSLSASVGDRVTITCQANQDINTYLNWYLQKPGKAPQLLVFDASNLVTGVPSRFSGGGSRTDFTLTIDSLQPEDIGTYYCQQYDHLPRRTFTFGPGTKVDLK | 6.6 | 0.716
HENV-226 (antibody, V domains shown) VH: EERLVQSGGGLAQPGQSLRLSCAGFGFTFTRYEMNWVRQAPGKGLEWIAHISTRGDTISYADSVKGRATISRDDTNNSLDLQMDSLRAEDTAIYFCARDRGSLSTRPPDSYHYYYHGMDVWGQGTTVIVSS VL: EIVLTQSPATLSLSPGERATLSCRASQSIDTYLAWYQQKPGQAPRLLIYDASNRATGIPARFSGSGSGTDFSLTISSLEPDDFAVYYCQQRSNRPPRYTFGLGTRLEIK | – | 0.259
